Assay in all cases: holdup assay
What all share (design): key: below the threshold = too weak to quantify, mostly under pKd 3.1 to 4

One assay has as its target GOPC, Q9HD26.
The next assay deals with T1, PARD6G, Q9BYG4.
T1 sequence (Q9BYG4 153-261, limits assumed, looked up): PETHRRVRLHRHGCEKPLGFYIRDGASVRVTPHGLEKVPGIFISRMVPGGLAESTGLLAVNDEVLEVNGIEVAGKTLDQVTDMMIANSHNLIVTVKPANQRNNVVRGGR
The following applies: plain residues with an end cap or a label only (N-terminal biotin on a linker: (peg)3).

A further assay has as its target T2, PTPN4, P29074.
T2 sequence (P29074 512-599, limits assumed, looked up): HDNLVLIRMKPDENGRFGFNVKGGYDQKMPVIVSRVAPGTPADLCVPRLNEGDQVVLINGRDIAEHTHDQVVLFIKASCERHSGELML
The following applies: plain residues with an end cap or a label only (N-terminal biotin on a linker: (peg)3).

A further assay deals with T3, USH1C_1, Q9Y6N9.
T3 sequence (Q9Y6N9 82-179, limits assumed, looked up): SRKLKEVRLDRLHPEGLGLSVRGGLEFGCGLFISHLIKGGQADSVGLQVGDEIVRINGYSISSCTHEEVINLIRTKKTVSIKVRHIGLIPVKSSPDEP
The conditions noted are these: plain residues with an end cap or a label only (N-terminal biotin on a linker: (peg)3).

In the next assay the target is T4, PTPN13_4, Q12923.
T4 sequence (Q12923 1783-1878, limits assumed, looked up): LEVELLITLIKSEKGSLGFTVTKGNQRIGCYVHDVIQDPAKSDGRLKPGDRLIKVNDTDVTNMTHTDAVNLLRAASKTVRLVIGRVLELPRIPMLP
The conditions noted are these: plain residues with an end cap or a label only (N-terminal biotin on a linker: (peg)3).

In the next assay the target is SDCBP_1, O00560. The following applies: plain residues with an end cap or a label only (N-terminal biotin on a linker: (peg)3).
The target of the next assay is SCRIB_4, Q14160. The conditions noted are these: plain residues with an end cap or a label only (N-terminal biotin on a linker: (peg)3).
The target of a further assay is T5, PDZD8, Q8NEN9.
T5 sequence (Q8NEN9 361-459, limits assumed, looked up): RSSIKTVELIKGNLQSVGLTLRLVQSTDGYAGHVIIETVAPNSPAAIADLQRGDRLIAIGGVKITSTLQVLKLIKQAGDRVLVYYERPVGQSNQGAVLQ
The conditions noted are these: plain residues with an end cap or a label only (N-terminal biotin on a linker: (peg)3).

For another assay, the target named is T6, RGS12, O14924.
T6 sequence (O14924 17-108, limits assumed, looked up): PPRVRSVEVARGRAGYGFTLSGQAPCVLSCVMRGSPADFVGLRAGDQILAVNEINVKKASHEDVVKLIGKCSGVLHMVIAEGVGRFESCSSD
The following applies: plain residues with an end cap or a label only (N-terminal biotin on a linker: (peg)3).

Another assay addresses T7, MPDZ_7, O75970.
T7 sequence (O75970 1146-1253, limits assumed, looked up): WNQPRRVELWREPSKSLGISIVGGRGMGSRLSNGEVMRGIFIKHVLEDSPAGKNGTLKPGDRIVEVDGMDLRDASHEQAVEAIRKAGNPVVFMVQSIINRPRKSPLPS
The following applies: plain residues with an end cap or a label only (N-terminal biotin on a linker: (peg)3).

In another assay the target is DLG5_2, Q8TDM6. The conditions noted are these: plain residues with an end cap or a label only (N-terminal biotin on a linker: (peg)3).
The next assay deals with RIMS2, Q9UQ26. The conditions noted are these: plain residues with an end cap or a label only (N-terminal biotin on a linker: (peg)3).
In the next assay the target is T8, INTU, Q9ULD6.
T8 sequence (Q9ULD6 180-273, limits assumed, looked up): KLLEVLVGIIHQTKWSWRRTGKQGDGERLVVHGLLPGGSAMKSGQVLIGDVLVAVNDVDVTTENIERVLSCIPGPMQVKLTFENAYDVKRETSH
The following applies: plain residues with an end cap or a label only (N-terminal biotin on a linker: (peg)3).

In another assay the target is DLG2_1, Q15700. The following applies: plain residues with an end cap or a label only (N-terminal biotin on a linker: (peg)3).
For the next assay, the target named is T9, PDZD7_2, Q9H5P4.
T9 sequence (Q9H5P4 205-303, limits assumed, looked up): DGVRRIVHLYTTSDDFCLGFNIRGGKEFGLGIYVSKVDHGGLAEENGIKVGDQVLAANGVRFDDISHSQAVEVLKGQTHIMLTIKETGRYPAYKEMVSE
The conditions noted are these: plain residues with an end cap or a label only (N-terminal biotin on a linker: (peg)3).

A further assay addresses PARD3B_2, Q8TEW8. The conditions noted are these: plain residues with an end cap or a label only (N-terminal biotin on a linker: (peg)3).
A further assay concerns the target T10, PDZD2_1, O15018.
T10 sequence (O15018 80-192, limits assumed, looked up): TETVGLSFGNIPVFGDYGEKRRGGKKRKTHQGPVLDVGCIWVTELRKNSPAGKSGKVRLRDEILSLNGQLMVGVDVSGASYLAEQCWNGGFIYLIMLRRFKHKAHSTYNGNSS
The conditions noted are these: plain residues with an end cap or a label only (N-terminal biotin on a linker: (peg)3).

Another assay addresses CNKSR3, Q6P9H4. The conditions noted are these: plain residues with an end cap or a label only (N-terminal biotin on a linker: (peg)3).
Another assay concerns the target T11, PARD6B, Q9BYG5.
T11 sequence (Q9BYG5 152-260, limits assumed, looked up): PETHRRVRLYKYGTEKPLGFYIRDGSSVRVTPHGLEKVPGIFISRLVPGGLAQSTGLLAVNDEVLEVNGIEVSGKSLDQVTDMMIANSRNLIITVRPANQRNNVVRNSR
The conditions noted are these: plain residues with an end cap or a label only (N-terminal biotin on a linker: (peg)3).

Another assay deals with MAGIX, Q9H6Y5. The following applies: plain residues with an end cap or a label only (N-terminal biotin on a linker: (peg)3).
Another assay deals with MAST3, O60307. The following applies: plain residues with an end cap or a label only (N-terminal biotin on a linker: (peg)3).
A further assay has as its target RGS3, P49796-9. The conditions noted are these: plain residues with an end cap or a label only (N-terminal biotin on a linker: (peg)3).
The target of a further assay is MAGI1_4, Q96QZ7. The following applies: plain residues with an end cap or a label only (N-terminal biotin on a linker: (peg)3).
The target of the next assay is T12, NHERF1_1, O14745.
T12 sequence (O14745 9-104, limits assumed, looked up): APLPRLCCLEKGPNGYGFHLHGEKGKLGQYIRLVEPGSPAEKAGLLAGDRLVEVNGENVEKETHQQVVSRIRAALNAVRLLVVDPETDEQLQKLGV
The following applies: plain residues with an end cap or a label only (N-terminal biotin on a linker: (peg)3).

Setting [1] is: plain residues with an end cap or a label only (N-terminal biotin on a linker: ado-ado).

This is an account of results in publication PMC9482650, “Quantitative fragmentomics allow affinity mapping of interactomes” (Nature Communications, 2022).

SDCBP_1, O00560, sequence (O00560 111-198): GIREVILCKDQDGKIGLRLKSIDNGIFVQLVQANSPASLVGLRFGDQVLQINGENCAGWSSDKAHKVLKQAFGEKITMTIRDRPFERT
MAGIX, Q9H6Y5, sequence (Q9H6Y5 118-211): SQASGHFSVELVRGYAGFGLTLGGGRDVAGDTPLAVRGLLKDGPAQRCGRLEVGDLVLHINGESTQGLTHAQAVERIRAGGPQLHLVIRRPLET
MAST3, O60307, sequence (O60307 945-1048): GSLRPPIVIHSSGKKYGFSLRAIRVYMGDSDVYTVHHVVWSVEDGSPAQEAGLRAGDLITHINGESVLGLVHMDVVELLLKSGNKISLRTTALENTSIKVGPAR
MAGI1_4, Q96QZ7, sequence (Q96QZ7 other isoform, or with tags, fused parts or gaps): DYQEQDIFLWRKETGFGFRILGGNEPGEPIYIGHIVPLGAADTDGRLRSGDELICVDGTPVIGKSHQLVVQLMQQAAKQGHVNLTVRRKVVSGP
PARD3B_2, Q8TEW8, sequence (Q8TEW8 376-471): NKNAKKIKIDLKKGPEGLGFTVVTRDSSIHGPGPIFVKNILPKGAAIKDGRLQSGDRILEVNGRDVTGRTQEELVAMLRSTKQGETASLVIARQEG
CNKSR3, Q6P9H4, sequence (Q6P9H4 203-303): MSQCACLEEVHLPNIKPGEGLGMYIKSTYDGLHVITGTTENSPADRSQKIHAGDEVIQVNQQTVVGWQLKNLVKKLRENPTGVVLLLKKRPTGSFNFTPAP
RIMS2, Q9UQ26, sequence (Q9UQ26 637-758): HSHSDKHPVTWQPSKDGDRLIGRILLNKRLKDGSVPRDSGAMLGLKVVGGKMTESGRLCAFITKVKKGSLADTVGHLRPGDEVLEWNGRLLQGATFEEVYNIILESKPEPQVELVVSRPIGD
SCRIB_4, Q14160, sequence (Q14160 1095-1204): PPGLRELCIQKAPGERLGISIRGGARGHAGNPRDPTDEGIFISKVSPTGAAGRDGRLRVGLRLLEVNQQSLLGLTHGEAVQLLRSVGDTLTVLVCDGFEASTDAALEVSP
DLG5_2, Q8TDM6, sequence (Q8TDM6 714-800): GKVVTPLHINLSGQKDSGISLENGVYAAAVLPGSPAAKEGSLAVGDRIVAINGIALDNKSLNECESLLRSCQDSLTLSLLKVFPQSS
RGS3, P49796-9, sequence (P49796 other isoform, or with tags, fused parts or gaps): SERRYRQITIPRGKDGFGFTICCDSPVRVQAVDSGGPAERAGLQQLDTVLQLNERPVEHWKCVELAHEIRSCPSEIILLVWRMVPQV

The term pKd denotes the Kd on a negative log10 scale, so that one unit is a factor of ten. Take RRRESYSTTV [EVI5, O60447]: in the assay with GOPC, Q9HD26 (setting [1]), the pKd is 4.36.
On the same count and under the same terms, the same measure for RRISSLESEV [GRIN2C, Q14957]: “below the threshold”; for YRLAQESGLV [ABCC6, O95255]: “below the threshold”; for SGSLKLMTTV [DACT1, Q9NYF0]: 3.95.
On to CLREWCDAFL [BANF1, O75531], for which, in the assay with GOPC, Q9HD26 (setting [1]), the pKd entry is recorded as “below the threshold”.
For FNSYSLTGYV [CLDN2, P57739], the pKd with GOPC, Q9HD26 (setting [1]) was determined as 3.66.
Molecule VKPQVSESKL [ACOT8, O14734] showed a pKd in the assay with GOPC, Q9HD26 (setting [1]) of 3.51.
As for MLSKQSESAI [FLVCR1, Q9Y5Y0], the pKd entry with GOPC, Q9HD26 (setting [1]) is “below the threshold”.
Turning to LKVPPEERLI [CRB2, Q5IJ48], the pKd entry in the assay with GOPC, Q9HD26 (setting [1]) was “below the threshold”.
Consider PRAEAEDSFL [PDGFRB, P09619], for which the pKd entry with GOPC, Q9HD26 (setting [1]) is on record as “below the threshold”.
With EKKTLIGIKL [GOT1L1, Q8NHS2], the pKd entry with GOPC, Q9HD26 (setting [1]) is “below the threshold”.
As for YNNCLEILRV [DCAF7, P61962], the pKd result in the assay with GOPC, Q9HD26 (setting [1]) is “below the threshold”.
Turning to SARSRLSSNL [HCN2, Q9UL51], the pKd with GOPC, Q9HD26 (setting [1]) turned out to be 3.5.
In the case of RRLPGKETMA [GRIK2, Q13002], in the assay with GOPC, Q9HD26 (setting [1]), the pKd result is listed as “below the threshold”.
Consider TKGPRGPTRV [SAPCD1, Q5SSQ6], for which the pKd with GOPC, Q9HD26 (setting [1]) came out at 4.19.
For LRSPRTPSEV [OR10G3, Q8NGC4], the pKd entry with GOPC, Q9HD26 (setting [1]) is “below the threshold”.
TASPAKETSF [SLC2A7, Q6PXP3]: the pKd result in the assay with GOPC, Q9HD26 (setting [1]) is listed as “below the threshold”.
Regarding SNAGNTATKA [NOSTRIN, Q8IVI9], the pKd result with GOPC, Q9HD26 (setting [1]) is given as “below the threshold”.
For the molecule KKAPTNEFYA [SDC4, P31431], in the assay with GOPC, Q9HD26 (setting [1]), the pKd result is listed as “below the threshold”.
Consider SKPTRRETEV [HPV35-E6_-2P, P27228], for which the pKd entry with GOPC, Q9HD26 (modified: phospho on T at position -2 from the C-terminal residue) was “below the threshold”.
The molecule LGRSTPQSEV [DGKH, Q86XP1] showed a pKd with GOPC, Q9HD26 (setting [1]) of 3.87.
Regarding EALLQMESVA [CAVIN3, Q969G5], the pKd entry with GOPC, Q9HD26 (setting [1]) is recorded as “below the threshold”.
With GSGAVEMESV [AQP6, Q13520], the negative logarithm of the Kd (pKd) result in the assay with GOPC, Q9HD26 (setting [1]) was “below the threshold”.
For ETQVTAETVI [TMEM225B, P0DP42], in the assay with GOPC, Q9HD26 (setting [1]), the pKd result was “below the threshold”.
Take NLNSSEGVPDLLV [SARS-CoV-E, P59637]: the pKd result is “below the threshold” with PARD6G, Q9BYG4; “below the threshold” with GOPC, Q9HD26 (plain residues with an end cap or a label only (N-terminal biotin on a linker: (peg)3)); “below the threshold” with PTPN4, P29074; “below the threshold” with USH1C_1, Q9Y6N9; 4.64 in the assay with PTPN13_4, Q12923; “below the threshold” with SDCBP_1, O00560. Moreover, the negative-log Kd (pKd) entry is reported as “below the threshold” in the assay with SCRIB_4, Q14160; “below the threshold” with PDZD8, Q8NEN9; “below the threshold” in the assay with RGS12, O14924; “below the threshold” with MPDZ_7, O75970; “below the threshold” in the assay with DLG5_2, Q8TDM6; “below the threshold” with RIMS2, Q9UQ26. Also, the pKd entry with INTU, Q9ULD6 is “below the threshold”; with DLG2_1, Q15700, “below the threshold”; with PDZD7_2, Q9H5P4, “below the threshold”; with PARD3B_2, Q8TEW8 it was “below the threshold”; in the assay with PDZD2_1, O15018, “below the threshold”; with CNKSR3, Q6P9H4, “below the threshold”. Besides, the negative-log Kd (pKd) entry is reported as “below the threshold” in the assay with PARD6B, Q9BYG5; “below the threshold” with MAGIX, Q9H6Y5; “below the threshold” in the assay with MAST3, O60307; “below the threshold” with RGS3, P49796-9; “below the threshold” with MAGI1_4, Q96QZ7; “below the threshold” with NHERF1_1, O14745.
As to QSARLWETSI [ADAM22, Q9P0K1], in the assay with GOPC, Q9HD26 (setting [1]), the pKd was found to be 4.42.
IKAIVDLTGL [TRAF2, Q12933]: the pKd result with GOPC, Q9HD26 (setting [1]) was “below the threshold”.
Same read-out and setting: the same measure for RKPKPSSSCC [RAB9A, P51151]: “below the threshold”; for PPYRHRNTVV [ERBB4, Q15303]: 4.08; for LPAHHNATRL [SLC34A1, Q06495;Q06495-1]: 4.53.
Take QGPVETESVV [SLC45A4, Q5BKX6]: the pKd with GOPC, Q9HD26 (setting [1]) stood at 3.54.
